Source: patent US20130136748A1 (Ablynx, published 2013)
Where two headings read alike, the source gives them in different places. One block for each molecule: values may come before it.

Columns and labels:
[1] = biological target: T1, human HER3-Fc (R&D Systems, 348-RB) (human, UniProt P21860 20-643); assay: SPR, HER3-Fc captured by anti-Fc
T1 construct: Bought; also called hHER3-Fc; Fc-HER3; Fc part of the bought chimera not given, not described

hHER3 full length [2] = biological target: T2, hHER3 full length (human, UniProt P21860 20-1342); assay: FACS competition with HRG1-β1-EGF, CHO-HER3
hHER3 full length [3] = biological target: T2, hHER3 full length; assay: cell-based or functional assay
[4] = biological target: T3, cHER3ECD (Maccaca fascicularis HER3 extracellular domain) (Macaca fascicularis, UniProt P21860 20-643 (human entry)); assay: ELISA, coated cHER3-ECD
T3 construct: also called cyno HER3ECD; cyno HER3-ECD
T3 chain: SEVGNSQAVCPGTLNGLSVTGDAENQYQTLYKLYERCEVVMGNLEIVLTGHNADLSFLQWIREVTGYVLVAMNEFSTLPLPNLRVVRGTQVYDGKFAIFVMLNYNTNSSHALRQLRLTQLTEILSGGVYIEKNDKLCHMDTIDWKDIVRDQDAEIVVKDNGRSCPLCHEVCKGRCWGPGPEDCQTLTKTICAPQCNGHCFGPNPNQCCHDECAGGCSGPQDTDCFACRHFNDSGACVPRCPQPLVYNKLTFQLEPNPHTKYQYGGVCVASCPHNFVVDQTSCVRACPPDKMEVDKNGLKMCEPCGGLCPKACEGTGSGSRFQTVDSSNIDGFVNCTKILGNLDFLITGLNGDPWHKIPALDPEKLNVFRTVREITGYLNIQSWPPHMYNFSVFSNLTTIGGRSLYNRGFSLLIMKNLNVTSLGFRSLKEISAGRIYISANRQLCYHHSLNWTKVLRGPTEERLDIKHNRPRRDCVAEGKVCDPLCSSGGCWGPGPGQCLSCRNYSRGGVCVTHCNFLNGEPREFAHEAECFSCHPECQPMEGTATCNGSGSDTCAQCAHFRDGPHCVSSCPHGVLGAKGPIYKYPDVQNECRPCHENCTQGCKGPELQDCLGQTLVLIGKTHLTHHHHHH

hHER3 full length [5] = biological target: T2, hHER3 full length; assay: FACS, 400 nM, competitor 18E08-biotin
hHER3 full length [6] = biological target: T2, hHER3 full length; assay: FACS, 400 nM, competitor 04F10-biotin
hHER3 full length [7] = biological target: T2, hHER3 full length; assay: FACS, 400 nM, competitor 21B02-biotin
hHER3 full length [8] = biological target: T2, hHER3 full length; assay: FACS, 400 nM, competitor 04C07-biotin
[9] = biological target: T4, hHER3 ECD (human HER3 extracellular domain) (human, UniProt P21860 20-643); assay: ELISA, coated hHER3-ECD
T4 construct: also called recombinant HER3-ECD

hHER3 full length [10] = biological target: T2, hHER3 full length; assay: cell-based or functional assay; remark: listed apart in the source
hHER3 full length [11] = biological target: T2, hHER3 full length; assay: FACS, 400 nM, competitor 17C08-biotin
hHER3 full length [12] = biological target: T2, hHER3 full length; assay: FACS, 400 nM, competitor 23F05-biotin
[13] = biological target: T1, human HER3-Fc (R&D Systems, 348-RB); assay: HRG competition alphascreen
[14] = biological target: T1, human HER3-Fc (R&D Systems, 348-RB); assay: 18G11 competition alphascreen, periplasmic extract
[15] = biological target: T4, hHER3 ECD (human HER3 extracellular …); assay: SPR off rate on HER3-ECD, periplasmic extract
hHER3 full length [16] = biological target: T2, hHER3 full length; assay: cell-based or functional assay; remark: listed apart in the source
hHER3 full length [17] = biological target: T2, hHER3 full length; assay: cell-based or functional assay; remark: listed apart in the source
[18] = biological target: T1, human HER3-Fc (R&D Systems, 348-RB); assay: HRG competition alphascreen; remark: listed apart in the source

Kd [1]: 0.57 nM
kon [1]: 703000 M⁻¹ s⁻¹
Molecule: Control Fab1

IC50 (hHER3 full length [2]): 67.2 nM
Molecule: Control MAb2 (antibody)

Kd [1]: 2.77 nM
kon [1]: 93400 M⁻¹ s⁻¹
Molecule: Control Fab2

IC50 (hHER3 full length [2]): 9.4 nM
Molecule: Control MAb1 (antibody)

IC50, HRG1-β1 induced pAkt, MCF-7 (hHER3 full length [3]): 2.9e-07 M
inhibition of HRG1-β1 induced pERK1/2, MCF-7 (hHER3 full length [3]): < 50 % inhibition
EC50 [4]: 1.3 nM
% competition (hHER3 full length [5]): 78%
% competition (hHER3 full length [6]): 0%
% competition (hHER3 full length [7]): 22%
% competition (hHER3 full length [8]): 0%
EC50 [9]: 1.45 nM
IC50, HRG1-β1 induced pHER3, MCF-7 (hHER3 full length [10]): 9.12e-08 M
IC50, HRG1-β1 induced pHER3, MDA-MB468 (hHER3 full length [10]): 1.28e-07 M
% competition (hHER3 full length [11]): 48%
% competition (hHER3 full length [12]): 10%
B1: 05A09 (VHH)
VHH: EVQLVESGGGLVQAGGSLRLSCAASGFTFDDYAIGWFRQAPGKEREGVSCISSSDGSTVYADSVKGRFTISSDNAKNTVYLQMNSLKPEDTAVYYCAAERRRGYSDLCRFYYGMDYWGKGTQVTVSS

IC50 [13]: 0.753 nM
B2: HER3MS00077 (VHH)
VHH: EVQLVESGGGLVQPGGSLRLSCAASGSIGGLNAMAWYRQAPGKERELVAGIFGVGSTRYADSVKGRFTISRDNSKNTVFLQMNSLRSEDTAVYYCRMSSVTRGSSDYWGQGTLVTVSS
notes: 17B05 basic + I73N; also called HER3MS0077

IC50 [13]: 4.05 nM
B3: HER3MS00082 (VHH)
VHH: EVQLVESGGGLVQPGGSLRLSCAASGSIGGLNAMAWYRQAPGKERELVAGIFGVGSTRYADSVKGRFTISRDISKNTVYLQMNSLRSEDTAVYYCAMSSVTRGSSDYWGQGTLVTVSS
notes: also called HER3MS0082

IC50 [13]: 3.08 nM
B4: HER3MS00079 (VHH)
VHH: EVQLVESGGGLVQPGGSLRLSCAASGSIGGLNAMAWYRQAPGKERELVAGIFGVGSTRYADSVKGRFTISRDISKNTVFLQMNSLRSEDTAVYYCAMSSVTRGSSDYWGQGTLVTVSS
notes: also called HER3MS0079

IC50 [13]: 0.811 nM
B5: HER3MS00078 (VHH)
VHH: EVQLVESGGGLVQPGGSLRLSCAASGSIGGLNAMAWYRQAPGKERELVAGIFGVGSTRYADSVKGRFTISRDISKNTVYLQMNSLRSEDTAVYYCRMSSVTRGSSDYWGQGTLVTVSS
notes: 17B05 basic + F79Y; also called HER3MS0078

IC50 [13]: 5.89 nM
B6: HER3MS00081 (VHH)
VHH: EVQLVESGGGLVQPGGSLRLSCAASGSIGGLNAMAWYRQAPGKERELVAGIFGVGSTRYADSVKGRFTISRDNSKNTVFLQMNSLRSEDTAVYYCAMSSVTRGSSDYWGQGTLVTVSS
notes: also called HER3MS0081

IC50, HRG1-β1 induced pAkt, MCF-7 (hHER3 full length [3]): 6.26e-08 M
IC50, HRG1-β1 induced pERK1/2, MCF-7 (hHER3 full length [3]): 3.13e-07 M
EC50 [4]: 0.49 nM
% competition (hHER3 full length [5]): 25%
% competition (hHER3 full length [6]): 3%
Kd [1]: 2.7 nM
kon [1]: 2.63e+06 M⁻¹ s⁻¹
% competition (hHER3 full length [7]): 99%
% competition (hHER3 full length [8]): 22%
EC50 [9]: 0.57 nM
IC50, HRG1-β1 induced pHER3, MCF-7 (hHER3 full length [10]): 3.02e-08 M
IC50, HRG1-β1 induced pHER3, MDA-MB468 (hHER3 full length [10]): 2.2e-08 M
% competition (hHER3 full length [11]): 14%
% competition (hHER3 full length [12]): 97%
B7: 34A04 (VHH)
VHH: EVQLVESGGGLVQAGGSLRLSCAASGFTFDDYTIGWFRQAPGKEREEISCISNNDGSTYYTNSVKGRFTISSDNAKNTVYLQMNSLKPEDTAVYYCAASPHGCWYDLIPLQADFGSWGQGTQVTVSS

% inhibition [14]: 84.4%
koff [15]: 0.001 s⁻¹
IC50 pHER3 blocking, HRG stimulated MCF7 (hHER3 full length [16]): 8.88e-08 M
B8: HER3MS00068 (VHH)
VHH: EVQLVESGGGLVQPGGSLRLSCAASGTLFKINAMGWYRQAPGKRRELVALITSSDTTDYAESVEGRFTISRDNTWNAVYLQMNSLKPEDTAVYYCHSDHYSGGVPEKRVIMYGQGTLVTVSS
notes: 18G11 M99G

% inhibition [14]: 88%
koff [15]: 0.00082 s⁻¹
IC50 pHER3 blocking, HRG stimulated MCF7 (hHER3 full length [16]): 5.76e-08 M
B9: HER3MS00072 (VHH)
VHH: EVQLVESGGGLVQPGGSLRLSCAASGTLFKINAMGWYRQAPGKRRELVALITSSDTTDYAESVEGRFTISRDNTWNAVYLQMNSLKPEDTAVYYCHSDHYSMGVPEKRVILYGQGTLVTVSS
notes: 18G11 M102L

% inhibition [14]: 82.2%
koff [15]: 0.00064 s⁻¹
IC50 pHER3 blocking, HRG stimulated MCF7 (hHER3 full length [16]): 3.78e-08 M
B10: HER3MS00070 (VHH)
VHH: EVQLVESGGGLVQPGGSLRLSCAASGTLFKINAMGWYRQAPGKRRELVALITSSDTTDYAESVEGRFTISRDNTWNAVYLQMNSLKPEDTAVYYCHSDHYSIGVPEKRVIMYGQGTLVTVSS
notes: 18G11 M99I

% inhibition [14]: 82.7%
koff [15]: 0.00049 s⁻¹
IC50 pHER3 blocking, HRG stimulated MCF7 (hHER3 full length [16]): 6.3e-08 M
B11: HER3MS00074 (VHH)
VHH: EVQLVESGGGLVQPGGSLRLSCAASGTLFKINAMGWYRQAPGKRRELVALITSSDTTDYAESVEGRFTISRDNTWNAVYLQMNSLKPEDTAVYYCHSDHYSMGVPEKRVIEYGQGTLVTVSS
notes: 18G11 M102E

% inhibition [14]: 80.9%
koff [15]: 0.00084 s⁻¹
IC50 pHER3 blocking, HRG stimulated MCF7 (hHER3 full length [16]): 7.35e-08 M
B12: HER3MS00071 (VHH)
VHH: EVQLVESGGGLVQPGGSLRLSCAASGTLFKINAMGWYRQAPGKRRELVALITSSDTTDYAESVEGRFTISRDNTWNAVYLQMNSLKPEDTAVYYCHSDHYSVGVPEKRVIMYGQGTLVTVSS
notes: 18G11 M99V

% inhibition [14]: 83%
koff [15]: 0.00081 s⁻¹
IC50 pHER3 blocking, HRG stimulated MCF7 (hHER3 full length [16]): 5.27e-08 M
B13: HER3MS00069 (VHH)
VHH: EVQLVESGGGLVQPGGSLRLSCAASGTLFKINAMGWYRQAPGKRRELVALITSSDTTDYAESVEGRFTISRDNTWNAVYLQMNSLKPEDTAVYYCHSDHYSLGVPEKRVIMYGQGTLVTVSS
notes: 18G11 M99L

% inhibition [14]: 84.4%
koff [15]: 0.00083 s⁻¹
IC50 pHER3 blocking, HRG stimulated MCF7 (hHER3 full length [16]): 8.75e-08 M
B14: HER3MS00073 (VHH)
VHH: EVQLVESGGGLVQPGGSLRLSCAASGTLFKINAMGWYRQAPGKRRELVALITSSDTTDYAESVEGRFTISRDNTWNAVYLQMNSLKPEDTAVYYCHSDHYSMGVPEKRVIDYGQGTLVTVSS
notes: 18G11 M102D

IC50 pHER3, HRG1-β1 stimulated MCF7 (hHER3 full length [17]): 1.21e-07 M
IC50 [18]: 5.1 nM
B15: HER3MS00129 (VHH)
VHH: EVQLVESGGGLVQPGGSLRLSCAASGFTFSSYPMSWVRQAPGKGPEWVSTVSPGGITTSYADSVKGRFTISRDNSKNTLYLQMNSLRPEDTAVYYCLRDLGNRGQGTLVTVSS
notes: 04C07 basic + A46E + N101G

IC50 pHER3, HRG1-β1 stimulated MCF7 (hHER3 full length [17]): 9.38e-09 M
IC50 [18]: 0.88 nM
B16: HER3MS00130 (VHH)
VHH: EVQLVESGGGLVQPGGSLRLSCAASGFTFSSYPMSWVRQAPGKGPAWVSTVSPGGITTSYADSVKGRFTISRDNSKNTLYLQMNSLRPEDTAVYYCLRDLGNRGQGTLVTVSS
notes: 04C07 basic + N101G

IC50 pHER3, HRG1-β1 stimulated MCF7 (hHER3 full length [17]): 2.26e-07 M
IC50 [18]: 5.8 nM
B17: HER3MS00131 (VHH)
VHH: EVQLVESGGGLVQPGGSLRLSCAASGFTFSSYPMSWVRQAPGKGPEWVSTVSPGGITTSYADSVKGRFTISRDNSKNTLYLQMNSLRPEDTAVYYCLRDLSNRGQGTLVTVSS
notes: 04C07 basic + A46E + N101S

IC50 pHER3, HRG1-β1 stimulated MCF7 (hHER3 full length [17]): 1.31e-08 M
IC50 [18]: 1 nM
B18: HER3MS00132 (VHH)
VHH: EVQLVESGGGLVQPGGSLRLSCAASGFTFSSYPMSWVRQAPGKGPAWVSTVSPGGITTSYADSVKGRFTISRDNSKNTLYLQMNSLRPEDTAVYYCLRDLSNRGQGTLVTVSS
notes: 04C07 basic + N101S
